Test results published in article PMC2196413 (The Journal of Cell Biology, 2001).

B1: MBP fusion protein with NH2-terminal half of ZO-1 (domain or fragment)
chain: MSARAAAAKSTAMEETAIWEQHTVTLHRAPGFGFGIAISGGRDNPHFQSGETSIVISDVLKGGPAEGQLQENDRVAMVNGVSMDNVEHAFAVQQLRKSGKNAKITIRRKKKVQIPVSHPDPEPVSDNEDDSYDEEVHDPRAGRGALANRRSEKSWARDRSASRERSLSPRSDRRSVASSQPAKPTKVTLVKSRKNEEYGLRLASHIFVKEISQDSLAARDGNIQEGDVVLKINGTVTENMSLTDAKTLIERSKGKLKMVVQRDERATLLNVPDLSDSIHSANASERDDISEIQSLASDHSGRSHDRPPRRSQSRSPDQRSEPSDHSTQSPQQPSNGSLRSREEERMSKPGAISTPVKHVDDHPPKAVEEVTVEKNEKQTPTLPEPKPVYAQVGQPDVDLPVSPSDGALPNSAHEDGILRPSMKLVKFRKGDSVGLRLAGGNDVGIFVAGVLEDSPAAKEGLEEGDQILRVNNVDFTNIIREEAVLFLLDLPKGEEVTILAQKKKDVYRRIVESDVGDSFYIRTHFEYEKESPYGLSFNKGEVFRVVDTLYNGKLGSWLAIRIGKNHKEVERGIIPNKNRAEQLASVQYTLPKTAGGDRADFWRFRGLRSSKRNLRKSREDLSAQPVQTKFPAYERVVLREAGFLRPVTIFGPIADVAREKLAREEPDIYQIAKSEPRDAGTDHRSSGIIRLHTIKQIIDQDKHALLDVTPNAVDRLNYAQWYPIVVFLNPDSKQGVKTMRMRLCPESRKSARKLYERSHKLRKNNHHLFTTTINLNSMNDGWYGALKEAIQQQQNQLVWVSEGKADGATSDDLDLHDDRLSYLSAPGSEYSMYSTDSRHTSDYEDTDTEGGAYTDQELDETL
B2: MBP-PDZ1/2/3–PAR-3 (domain or fragment)
chain: MVKLVQVPNDGGPLGIHVVPFSARGGRTLGLLVKRLEKGGKAEQENLFHENDCIVRINDGDLRNRRFEQAQHMFRQAMRARVIWFHVVPAANKEQYEQLSQREMNNYSPGRFSPDSHCVANRSVANNAPQALPRAPRLSQPPEQLDAHPRLPHSAHASTKPPTAPALAPPNVLSTSVGSVYNTKRVGKRLNIQLKKGTEGLGFSITSRDVTIGGSAPIYVKNILPRGAAIQDGRLKAGDRLIEVNGVDLAGKSQEEVVSLLRSTKMEGTVSLLVFRQEEAFHPREMNAEPSQMQSPKETKAEDEDIVLTPDGTREFLTFEVPLNDSGSAGLGVSVKGNRSKENHADLGIFVKSIINGGAASKDGRLRVNDQLIAVNGESLLGKANQEAMETLRRSMSTEGNKRGMIQ

Target: T1, GST fusion protein with the cytoplasmic domain of JAM (human, UniProt Q9Y624 260-299)
T1 chain (looked up): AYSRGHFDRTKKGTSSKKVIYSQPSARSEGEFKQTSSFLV
Assay: pull-down

Row | Binder | Kd
1 | B1 | 110 nM
2 | B2 | 75 nM
